Results published in paper PMC4227796.

What was measured:
[1] = target: T1, RecQL4_N388 (Homo sapiens, UniProt O94761 1-388); assay: EMSA
T1 sequence: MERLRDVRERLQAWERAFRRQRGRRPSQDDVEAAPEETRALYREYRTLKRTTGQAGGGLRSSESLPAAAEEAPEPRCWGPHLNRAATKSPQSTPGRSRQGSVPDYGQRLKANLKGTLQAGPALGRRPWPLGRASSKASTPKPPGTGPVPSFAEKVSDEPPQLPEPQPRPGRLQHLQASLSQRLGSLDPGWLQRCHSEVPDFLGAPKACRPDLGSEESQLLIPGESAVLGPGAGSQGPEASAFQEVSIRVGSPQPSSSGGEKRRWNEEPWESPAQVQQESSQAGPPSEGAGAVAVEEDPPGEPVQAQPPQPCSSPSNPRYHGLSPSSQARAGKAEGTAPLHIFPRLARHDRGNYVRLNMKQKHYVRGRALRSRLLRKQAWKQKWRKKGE

[2] = target: T2, RecQL4_FL (Homo sapiens, UniProt O94761 1-1208); assay: EMSA
T2 sequence: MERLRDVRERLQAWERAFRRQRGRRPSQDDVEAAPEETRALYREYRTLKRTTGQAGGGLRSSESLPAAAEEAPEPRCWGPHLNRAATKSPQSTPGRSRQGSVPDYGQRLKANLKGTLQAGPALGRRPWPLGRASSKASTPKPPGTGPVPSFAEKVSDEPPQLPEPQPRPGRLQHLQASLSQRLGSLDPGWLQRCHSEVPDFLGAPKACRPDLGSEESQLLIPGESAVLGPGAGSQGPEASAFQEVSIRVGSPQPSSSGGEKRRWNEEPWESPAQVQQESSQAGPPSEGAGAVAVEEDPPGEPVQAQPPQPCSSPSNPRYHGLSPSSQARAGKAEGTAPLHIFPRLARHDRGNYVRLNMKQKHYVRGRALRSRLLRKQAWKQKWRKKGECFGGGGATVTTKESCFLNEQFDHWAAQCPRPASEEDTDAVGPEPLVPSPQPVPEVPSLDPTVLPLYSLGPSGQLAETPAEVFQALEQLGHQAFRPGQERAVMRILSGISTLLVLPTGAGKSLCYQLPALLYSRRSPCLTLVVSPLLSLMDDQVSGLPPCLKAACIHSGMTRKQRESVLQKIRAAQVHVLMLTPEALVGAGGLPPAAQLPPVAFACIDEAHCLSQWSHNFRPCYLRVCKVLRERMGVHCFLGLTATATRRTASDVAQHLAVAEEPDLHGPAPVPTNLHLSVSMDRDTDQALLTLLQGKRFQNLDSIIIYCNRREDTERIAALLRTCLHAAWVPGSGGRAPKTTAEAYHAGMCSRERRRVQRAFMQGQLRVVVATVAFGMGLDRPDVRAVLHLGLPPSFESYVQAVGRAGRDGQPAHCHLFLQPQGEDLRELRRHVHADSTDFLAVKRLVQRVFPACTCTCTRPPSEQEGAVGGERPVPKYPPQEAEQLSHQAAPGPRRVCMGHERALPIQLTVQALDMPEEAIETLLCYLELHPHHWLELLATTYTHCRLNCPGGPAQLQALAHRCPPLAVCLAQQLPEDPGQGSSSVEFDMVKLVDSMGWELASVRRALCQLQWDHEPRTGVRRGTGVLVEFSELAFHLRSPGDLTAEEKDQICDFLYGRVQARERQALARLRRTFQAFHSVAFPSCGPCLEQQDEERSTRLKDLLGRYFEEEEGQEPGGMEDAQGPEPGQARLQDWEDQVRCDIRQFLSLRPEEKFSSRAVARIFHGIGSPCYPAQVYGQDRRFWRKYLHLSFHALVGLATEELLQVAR

B1: LB2_GC (ssDNA)
DNA: GCAGAGGCCCGGCACGAGCTTCCCC
- binding result [1]: binds
- binding result [2]: binds
